Data on 36 variants can be found in the RNAGym collection of RNA variant scans (doi:10.1021/acssynbio.7b00057).

B1: Pistol ribozyme (parent)
chain: GGGUCGUUGUUCCAUAAUCGCGUGGAUAUGGCACGCAAGUUUCUACCGGGCACCGUAAAUGUCCGACUGGAGCCGUUCGGGCGGCUAUAAACAGACCUCAGGCCCGAAGCGUGGCGGCACCUGCCGCCGGUGGUAAAAAAGAUCGGAAGAGCACACGUCU

Variants of B1 are the subject of this data set. As to the kind of experiment: aptazyme ON/OFF ratio, guanine; higher = stronger switching; co-transcriptional cleavage with and without guanine.
For GGGUCGCGGUCACAUAAUCGCGUGGAUAUGGCACGCAAGUUUCUACCGGGCACCGUAAAUGUCCGACUGGAGCCGUUCGGGCGGCUAUAAACAGACCUCAGGCCCGAAGCGUGGCGGCACCUGCCGCCGGUGGUAAAAAAGAUCGGAAGAGCACACGUCU, the “aptazyme ON/OFF ratio” value worked out at 1.35. For GGGUCGUCCAAAGAUAAUCGCGUGGAUAUGGCACGCAAGUUUCUACCGGGCACCGUAAAUGUCCGACUGGAGCCGUUCGGGCGGCUAUAAACAGACCUCAGGCCCGAAGCGUGGCGGCACCUGCCGCCGGUGGUAAAAAAGAUCGGAAGAGCACACGUCU, the “aptazyme ON/OFF ratio” value was 1.11.

On to GGGUCGAAAAAUUAUAAUCGCGUGGAUAUGGCACGCAAGUUUCUACCGGGCACCGUAAAUGUCCGACUGGAGCCGUUCGGGCGGCUAUAAACAGACCUCAGGCCCGAAGCGUGGCGGCACCUGCCGCCGGUGGUAAAAAAGAUCGGAAGAGCACACGUCU, for which the “aptazyme ON/OFF ratio” value is 1.14.

Consider GGGUCGGUAUAAAAUAAUCGCGUGGAUAUGGCACGCAAGUUUCUACCGGGCACCGUAAAUGUCCGACUGGAGCCGUUCGGGCGGCUAUAAACAGACCUCAGGCCCGAAGCGUGGCGGCACCUGCCGCCGGUGGUAAAAAAGAUCGGAAGAGCACACGUCU, for which the “aptazyme ON/OFF ratio” value is 1.18. For the variant GGGUCGCUUACGGAUAAUCGCGUGGAUAUGGCACGCAAGUUUCUACCGGGCACCGUAAAUGUCCGACUGGAGCCGUUCGGGCGGCUAUAAACAGACCUCAGGCCCGAAGCGUGGCGGCACCUGCCGCCGGUGGUAAAAAAGAUCGGAAGAGCACACGUCU, the “aptazyme ON/OFF ratio” value worked out at 1.19. For GGGUCGGAUUCUUAUAAUCGCGUGGAUAUGGCACGCAAGUUUCUACCGGGCACCGUAAAUGUCCGACUGGAGCCGUUCGGGCGGCUAUAAACAGACCUCAGGCCCGAAGCGUGGCGGCACCUGCCGCCGGUGGUAAAAAAGAUCGGAAGAGCACACGUCU, the “aptazyme ON/OFF ratio” value worked out at 1.02.

Take GGGUCGGCGGAGGAUAAUCGCGUGGAUAUGGCACGCAAGUUUCUACCGGGCACCGUAAAUGUCCGACUGGAGCCGUUCGGGCGGCUAUAAACAGACCUCAGGCCCGAAGCGUGGCGGCACCUGCCGCCGGUGGUAAAAAAGAUCGGAAGAGCACACGUCU: the “aptazyme ON/OFF ratio” value was 1.21. Then GGGUCGCACGUCAAUAAUCGCGUGGAUAUGGCACGCAAGUUUCUACCGGGCACCGUAAAUGUCCGACUGGAGCCGUUCGGGCGGCUAUAAACAGACCUCAGGCCCGAAGCGUGGCGGCACCUGCCGCCGGUGGUAAAAAAGAUCGGAAGAGCACACGUCU, with 1.15.

GGGUCGGAACGCCAUAAUCGCGUGGAUAUGGCACGCAAGUUUCUACCGGGCACCGUAAAUGUCCGACUGGAGCCGUUCGGGCGGCUAUAAACAGACCUCAGGCCCGAAGCGUGGCGGCACCUGCCGCCGGUGGUAAAAAAGAUCGGAAGAGCACACGUCU: the “aptazyme ON/OFF ratio” value came out at 1.24. In the case of GGGUCGAAGAUCCAUAAUCGCGUGGAUAUGGCACGCAAGUUUCUACCGGGCACCGUAAAUGUCCGACUGGAGCCGUUCGGGCGGCUAUAAACAGACCUCAGGCCCGAAGCGUGGCGGCACCUGCCGCCGGUGGUAAAAAAGAUCGGAAGAGCACACGUCU it was 1.05; in that of GGGUCGAGUACGUAUAAUCGCGUGGAUAUGGCACGCAAGUUUCUACCGGGCACCGUAAAUGUCCGACUGGAGCCGUUCGGGCGGCUAUAAACAGACCUCAGGCCCGAAGCGUGGCGGCACCUGCCGCCGGUGGUAAAAAAGAUCGGAAGAGCACACGUCU, 1.4; in that of GGGUCGGCUUCGUAUAAUCGCGUGGAUAUGGCACGCAAGUUUCUACCGGGCACCGUAAAUGUCCGACUGGAGCCGUUCGGGCGGCUAUAAACAGACCUCAGGCCCGAAGCGUGGCGGCACCUGCCGCCGGUGGUAAAAAAGAUCGGAAGAGCACACGUCU, 1.32. For GGGUCGCACCAGUAUAAUCGCGUGGAUAUGGCACGCAAGUUUCUACCGGGCACCGUAAAUGUCCGACUGGAGCCGUUCGGGCGGCUAUAAACAGACCUCAGGCCCGAAGCGUGGCGGCACCUGCCGCCGGUGGUAAAAAAGAUCGGAAGAGCACACGUCU, the “aptazyme ON/OFF ratio” value was 1.12. Then GGGUCGAACCAAGAUAAUCGCGUGGAUAUGGCACGCAAGUUUCUACCGGGCACCGUAAAUGUCCGACUGGAGCCGUUCGGGCGGCUAUAAACAGACCUCAGGCCCGAAGCGUGGCGGCACCUGCCGCCGGUGGUAAAAAAGAUCGGAAGAGCACACGUCU, with 1.03. As for GGGUCGAAGUGCAAUAAUCGCGUGGAUAUGGCACGCAAGUUUCUACCGGGCACCGUAAAUGUCCGACUGGAGCCGUUCGGGCGGCUAUAAACAGACCUCAGGCCCGAAGCGUGGCGGCACCUGCCGCCGGUGGUAAAAAAGAUCGGAAGAGCACACGUCU, the “aptazyme ON/OFF ratio” value came out at 1.16.

For GGGUCGCCCAACUAUAAUCGCGUGGAUAUGGCACGCAAGUUUCUACCGGGCACCGUAAAUGUCCGACUGGAGCCGUUCGGGCGGCUAUAAACAGACCUCAGGCCCGAAGCGUGGCGGCACCUGCCGCCGGUGGUAAAAAAGAUCGGAAGAGCACACGUCU, the “aptazyme ON/OFF ratio” value was 1.15. In the case of GGGUCGACAGCCCAUAAUCGCGUGGAUAUGGCACGCAAGUUUCUACCGGGCACCGUAAAUGUCCGACUGGAGCCGUUCGGGCGGCUAUAAACAGACCUCAGGCCCGAAGCGUGGCGGCACCUGCCGCCGGUGGUAAAAAAGAUCGGAAGAGCACACGUCU it was 1.04.

In the case of GGGUCGAUUCAACAUAAUCGCGUGGAUAUGGCACGCAAGUUUCUACCGGGCACCGUAAAUGUCCGACUGGAGCCGUUCGGGCGGCUAUAAACAGACCUCAGGCCCGAAGCGUGGCGGCACCUGCCGCCGGUGGUAAAAAAGAUCGGAAGAGCACACGUCU, the “aptazyme ON/OFF ratio” value turned out to be 1.15. In the case of GGGUCGUAAUAGUAUAAUCGCGUGGAUAUGGCACGCAAGUUUCUACCGGGCACCGUAAAUGUCCGACUGGAGCCGUUCGGGCGGCUAUAAACAGACCUCAGGCCCGAAGCGUGGCGGCACCUGCCGCCGGUGGUAAAAAAGAUCGGAAGAGCACACGUCU it was 1.04; in that of GGGUCGGAACGUCAUAAUCGCGUGGAUAUGGCACGCAAGUUUCUACCGGGCACCGUAAAUGUCCGACUGGAGCCGUUCGGGCGGCUAUAAACAGACCUCAGGCCCGAAGCGUGGCGGCACCUGCCGCCGGUGGUAAAAAAGAUCGGAAGAGCACACGUCU, 1.28. In the case of GGGUCGACUUAAAAUAAUCGCGUGGAUAUGGCACGCAAGUUUCUACCGGGCACCGUAAAUGUCCGACUGGAGCCGUUCGGGCGGCUAUAAACAGACCUCAGGCCCGAAGCGUGGCGGCACCUGCCGCCGGUGGUAAAAAAGAUCGGAAGAGCACACGUCU it was 1.42. Take GGGUCGAGUGUUUAUAAUCGCGUGGAUAUGGCACGCAAGUUUCUACCGGGCACCGUAAAUGUCCGACUGGAGCCGUUCGGGCGGCUAUAAACAGACCUCAGGCCCGAAGCGUGGCGGCACCUGCCGCCGGUGGUAAAAAAGAUCGGAAGAGCACACGUCU: the “aptazyme ON/OFF ratio” value is 1.21. For GGGUCGACGCACAAUAAUCGCGUGGAUAUGGCACGCAAGUUUCUACCGGGCACCGUAAAUGUCCGACUGGAGCCGUUCGGGCGGCUAUAAACAGACCUCAGGCCCGAAGCGUGGCGGCACCUGCCGCCGGUGGUAAAAAAGAUCGGAAGAGCACACGUCU, the “aptazyme ON/OFF ratio” value was determined as 1.15. For the variant GGGUCGCAUACCGAUAAUCGCGUGGAUAUGGCACGCAAGUUUCUACCGGGCACCGUAAAUGUCCGACUGGAGCCGUUCGGGCGGCUAUAAACAGACCUCAGGCCCGAAGCGUGGCGGCACCUGCCGCCGGUGGUAAAAAAGAUCGGAAGAGCACACGUCU, the “aptazyme ON/OFF ratio” value was 1.05.

As to GGGUCGCCUGGAUAUAAUCGCGUGGAUAUGGCACGCAAGUUUCUACCGGGCACCGUAAAUGUCCGACUGGAGCCGUUCGGGCGGCUAUAAACAGACCUCAGGCCCGAAGCGUGGCGGCACCUGCCGCCGGUGGUAAAAAAGAUCGGAAGAGCACACGUCU, the “aptazyme ON/OFF ratio” value was found to be 1.1. With GGGUCGUCCAUCCAUAAUCGCGUGGAUAUGGCACGCAAGUUUCUACCGGGCACCGUAAAUGUCCGACUGGAGCCGUUCGGGCGGCUAUAAACAGACCUCAGGCCCGAAGCGUGGCGGCACCUGCCGCCGGUGGUAAAAAAGAUCGGAAGAGCACACGUCU, the “aptazyme ON/OFF ratio” value worked out at 1.51. In the case of GGGUCGCCAGGUAAUAAUCGCGUGGAUAUGGCACGCAAGUUUCUACCGGGCACCGUAAAUGUCCGACUGGAGCCGUUCGGGCGGCUAUAAACAGACCUCAGGCCCGAAGCGUGGCGGCACCUGCCGCCGGUGGUAAAAAAGAUCGGAAGAGCACACGUCU it was 1.1.

For the variant GGGUCGGCUGCGUAUAAUCGCGUGGAUAUGGCACGCAAGUUUCUACCGGGCACCGUAAAUGUCCGACUGGAGCCGUUCGGGCGGCUAUAAACAGACCUCAGGCCCGAAGCGUGGCGGCACCUGCCGCCGGUGGUAAAAAAGAUCGGAAGAGCACACGUCU, the “aptazyme ON/OFF ratio” value came to 1.29.

GGGUCGGUUCCGUAUAAUCGCGUGGAUAUGGCACGCAAGUUUCUACCGGGCACCGUAAAUGUCCGACUGGAGCCGUUCGGGCGGCUAUAAACAGACCUCAGGCCCGAAGCGUGGCGGCACCUGCCGCCGGUGGUAAAAAAGAUCGGAAGAGCACACGUCU: the “aptazyme ON/OFF ratio” value stood at 1.31. For GGGUCGGAUAAAGAUAAUCGCGUGGAUAUGGCACGCAAGUUUCUACCGGGCACCGUAAAUGUCCGACUGGAGCCGUUCGGGCGGCUAUAAACAGACCUCAGGCCCGAAGCGUGGCGGCACCUGCCGCCGGUGGUAAAAAAGAUCGGAAGAGCACACGUCU, the “aptazyme ON/OFF ratio” value amounted to 1.08. In the case of GGGUCGGUAGUCGAUAAUCGCGUGGAUAUGGCACGCAAGUUUCUACCGGGCACCGUAAAUGUCCGACUGGAGCCGUUCGGGCGGCUAUAAACAGACCUCAGGCCCGAAGCGUGGCGGCACCUGCCGCCGGUGGUAAAAAAGAUCGGAAGAGCACACGUCU it was 1.13.

With GGGUCGGGACGACAUAAUCGCGUGGAUAUGGCACGCAAGUUUCUACCGGGCACCGUAAAUGUCCGACUGGAGCCGUUCGGGCGGCUAUAAACAGACCUCAGGCCCGAAGCGUGGCGGCACCUGCCGCCGGUGGUAAAAAAGAUCGGAAGAGCACACGUCU, the “aptazyme ON/OFF ratio” value came out at 1.15. Then GGGUCGACUCGCAAUAAUCGCGUGGAUAUGGCACGCAAGUUUCUACCGGGCACCGUAAAUGUCCGACUGGAGCCGUUCGGGCGGCUAUAAACAGACCUCAGGCCCGAAGCGUGGCGGCACCUGCCGCCGGUGGUAAAAAAGAUCGGAAGAGCACACGUCU, with 1.17; and GGGUCGCAAGGGAAUAAUCGCGUGGAUAUGGCACGCAAGUUUCUACCGGGCACCGUAAAUGUCCGACUGGAGCCGUUCGGGCGGCUAUAAACAGACCUCAGGCCCGAAGCGUGGCGGCACCUGCCGCCGGUGGUAAAAAAGAUCGGAAGAGCACACGUCU, with 1.21. As for GGGUCGUCCGGAAAUAAUCGCGUGGAUAUGGCACGCAAGUUUCUACCGGGCACCGUAAAUGUCCGACUGGAGCCGUUCGGGCGGCUAUAAACAGACCUCAGGCCCGAAGCGUGGCGGCACCUGCCGCCGGUGGUAAAAAAGAUCGGAAGAGCACACGUCU, the “aptazyme ON/OFF ratio” value is 1.08.

In the case of GGGUCGGAGUCUGAUAAUCGCGUGGAUAUGGCACGCAAGUUUCUACCGGGCACCGUAAAUGUCCGACUGGAGCCGUUCGGGCGGCUAUAAACAGACCUCAGGCCCGAAGCGUGGCGGCACCUGCCGCCGGUGGUAAAAAAGAUCGGAAGAGCACACGUCU, the “aptazyme ON/OFF ratio” value is 1.09.
